For one series, the system named is xanthine aptamer. As to conditions: cited from earlier work.
Series [1] relates to transcript encoding the green fluorescent protein (GFP) in HEK 293 cells stably expressing GFP. Put plainly: Cell culture assay for miRNA activity (GFP silencing, transient transfection, flow cytometry). As to conditions: for response of GFP levels to hypoxanthine: 5 mM hypoxanthine; for response of GFP levels to tetracycline: 100 μM tetracycline; for GFP silencing: single copy, absence of ligand; for response of GFP levels to theophylline: transient transfection with varying theophylline concentrations. The class given is cell-based, human. From the text:
To examine the relationship between bulge size in the basal segments and gene silencing, we developed a general cell culture assay for miRNA activity (FIG. 1D). miRNAs designed to target a transcript encoding the green fluorescent protein (GFP) were inserted into the 3′ untranslated region (UTR) of a constitutively-expressed transcript encoding the fluorescent protein DsRed-Express. Plasmid DNA encoding the DsRed-Express construct was transfected into HEK 293 cells stably expressing GFP. The level of miRNA-mediated gene silencing was determined by flow cytometry analysis, where DsRed-Express levels were used to distinguish between transfected and untransfected cells. Using the cell culture assay, miRNAs with the same bulges as in the in vitro experiments were tested for silencing efficiency. […] Therefore, proper Drosha processing and gene silencing correlate with the size of the bulge in the miRNA basal segments.
293 and Flp-In-293 cells were maintained in DMEM supplemented with 10% FBS at 37° C. in a 5% CO2—humidified incubator. Transient transfections were conducted with Fugene 6 (Roche) according to the manufacturer's instructions one day after seeding. Immediately prior to transfection, the media was supplemented with the appropriate ligand at the specified concentration. Ligand concentrations were selected to maximize the regulatory response without severely compromising cell viability over the course of the transient assays. The media was replaced two days post-transfection. Three days post-transfection, the cells were trypsinized and subjected to flow cytometry analysis on a Cell Lab Quanta SC MPL (Beckman Coulter) and the resulting data was analyzed using the Flowjo software (Tree Star). Cells were initially gated for viability by electronic volume and side scatter. GFP and DsRed fluorescence of viable cells were measured through a 525 nm and […] band pass filter, respectively, after excitation with a 488 nm laser. Moderate to high DsRed levels served as a transfection control to gate between transfected and untransfected cells. Transfected cells could be distinguished from untransfected cells with this method even when four miRNAs were present in the 3′ UTR of the DsRed-Express encoding transcript (data not shown). GFP levels were calculated as the median fluorescence of the transfected population divided by that of the untransfected population (Beisel et al., 2008). This normalization approach corrected for the bias from pleiotropic effects associated with each small molecule. All ratios were normalized such that the value for DsRed-Express lacking a miRNA under the same conditions was set to 100%.
For orientation: Flow cytometry measures light scatter and fluorescence of single cells or particles in a stream.

The test system of a further series is endogenous La gene. Put plainly: La transcript levels by qRT-PCR in stable 293-Flp-In cell lines. The class given is cell-based, human. As to conditions: four copies; for silencing of La transcript: 112 nt spacer, stable cell lines. From the text: Most of the synthetic ligand-responsive RNA-based regulatory systems are encoded in the target transcript, providing regulation in cis (Suess and Weigand, 2008). However, the regulation of endogenous genes through cis regulatory strategies is currently limiting due to the lack of directed recombination technologies. To test whether ligand-responsive miRNAs provide a trans regulatory strategy for the effective regulation of endogenous genes, we incorporated a mature miRNA sequence against the endogenous La gene into wt (La1) and th1 (La2) (FIG. 9). Four copies of each miRNA separated by the longest spacer sequence were cloned into the 3′ UTR of the transcript encoding DsRed-Express, and the resulting constructs were stably integrated into a single site in 293-Flp-In cells.
(§1) Stable transfection of 293-Flp-In cell lines was performed using the Flp-In recombinase system (Invitrogen) according to the manufacturer's instructions to generate isogenic stable cell lines. Integrants were selected using 200 μg/ml hygromycin B (Invitrogen), whereas stable cell lines were maintained in 50 μg/ml hygromycin B. The procedure described above for the fluorescence expression analysis of transiently transfected cell populations was used to analyze the stable cell lines with notable exceptions. Normalization of flow cytometry data to untransfected cells was not performed as all cells express the integrated construct, and all data was normalized to cells lacking a miRNA and grown in the absence of theophylline. Normalization to cells grown under the same conditions was not performed since theophylline differentially affected the two negative controls: no miRNA and a self-targeting miRNA lacking the theophylline aptamer.
Transcript levels were measured by qRT-PCR under either transient or stable transfection conditions. […] Samples were prepared in quadruplicate using the iQ SYBR green supermix and data were analyzed using the iCycler iQ software. […] The reported sample error was calculated using the following expression: […]

The subject of series [2] is transcript encoding DsRed-Express. Put plainly: DsRed-Express levels in stable cell lines with La-targeting miRNAs (flow cytometry). The series is classed as cell-based, human. As to conditions: four copies; for response of DsRed levels to theophylline: 1.5 mM theophylline; for DsRed-Express down-regulation in cis: stable cell lines.
From the text: To assess the capacity for ligand-responsive miRNAs to regulate gene expression in cis, we measured expression levels for the transcripts harboring the ligand-responsive miRNAs targeting GFP and La. DsRed-Express levels were quantified by flow cytometry under similar conditions as the trans-targeted gene silencing experiments. […] Transcript analysis confirmed that the predominant regulatory mechanism of ligand-responsive miRNAs in cis is mRNA destabilization (FIG. 10).
as §1

For `O=c1[nH]cnc2nc[nH]c12` [Hypoxanthine], in the series on xanthine aptamer, the “affinity for the xanthine aptamer relative to xanthine” value was “comparable affinity”.

`Cn1c(=O)c2c(ncn2C)n(C)c1=O` [caffeine, reference compound]: in series [1] (1 mM caffeine, miRNAs th1 and wt), the “response of GFP silencing to caffeine” value is on record as “insensitive”.

B1: m1: SEQ ID NO. 19; GFP-targeting control miRNA with a large bulge in the basal segments, no aptamer (nucleic acid)
chain: TCTAGAACGGGAAGTAATTACAGTGAGCGAGCACAAGCTGGAGTACAACTATAGTGAAGCCACAGATGTATAGTTGTACTCCAGCTTGTGCCTGCCTACTGCCACATAGGGCCC
B1: the “response of GFP levels to hypoxanthine” value in series [1] is on record as “no effect”.

B2: m2: SEQ ID NO. 20; GFP-targeting control miRNA with varied bulge size, no aptamer (nucleic acid)
chain: TCTAGAACGGGAAACACAGTGAGCGAGCACAAGCTGGAGTACAACTATAGTGAAGCCACAGATGTATAGTTGTACTCCAGCTTGTGCCTGCCTACTGCCTCGGGCCC
In the case of B2, the “response of GFP levels to tetracycline” value in series [1] was “negligible tetracycline dependence”.

B3: tc1: SEQ ID NO. 30; GFP-targeting miRNA harboring the tetracycline aptamer (nucleic acid)
chain: TCTAGAACGGGTCCTAAAACATACCGTGAGCGAGCACAAGCTGGAGTACAACTATAGTGAAGCCACAGATGTATAGTTGTACTCCAGCTTGTGCCTGCCTACGGAGAGGTGAAGAATACGACCACCTAGGGCCC
modifications: miRNA
notes: 30; GFP-targeting miRNA harboring the tetracycline aptamer
B3: in series [1], the “response of GFP levels to tetracycline” value is listed as “tetracycline-dependent increase in GFP levels” and the GFP silencing result is reported as “down-regulated GFP”.

B4: La1: SEQ ID NO. 33; La-targeting miRNA with basal segments similar to miR-30a, no aptamer (nucleic acid)
chain: TCTAGAGTTTGACAGTGAGCGCTGGAAATCAGTGAAGATAAAATAGTGAAGCCACAGATGTATTTTATCTTCACTGATTTCCATTGCCTACTGCCTCGGACTGAATTCATAGGGCCC
modifications: expressed or natural sequence
notes: 33; La-targeting miRNA with basal segments similar to miR-30a, no aptamer
Turning to B4, in the series with endogenous La gene, the “silencing of La transcript” value is recorded as “relatively strong silencing”. In series [2], the “response of DsRed levels to theophylline” value is reported as “not observed” and the “DsRed-Express down-regulation in cis” value is on record as “substantial DsRed-Express down-regulation”.

B5: wt: SEQ ID NO. 18; GFP-targeting miRNA with basal segments similar to the natural miRNA miR-30a, control (nucleic acid)
chain: TCTAGAGTTTGACAGTGAGCGAGCACAAGCTGGAGTACAACTATAGTGAAGCCACAGATGTATAGTTGTACTCCAGCTTGTGCCTGCCTACTGCCTCGGACTGAATTCATAGGGCC
Regarding B5, in series [1], the GFP silencing entry is “silence GFP with comparable strength” and the “response of GFP levels to theophylline” value was “insensitive to theophylline”.

B6: La2: SEQ ID NO. 34; La-targeting miRNA with the theophylline aptamer in the basal segments (nucleic acid)
chain: TCTAGAACGGGTCCTGATACCAGCGTGAGCGCTGGAAATCAGTGAAGATAAAATAGTGAAGCCACAGATGTATTTTATCTTCACTGATTTCCATCGCCTACGCCCTTGGCAGCAGGGCCC
modifications: expressed or natural sequence
notes: 34; La-targeting miRNA with the theophylline aptamer in the basal segments
On to B6, for which the “response of La transcript levels to theophylline” value with endogenous La gene (1.5 mM theophylline for over one week) is listed as “theophylline-dependent increase in La transcript levels”. Moreover, in the series on endogenous La gene, the “silencing of La transcript” value was “relatively strong silencing”. In series [2], the “response of DsRed levels to theophylline” value is reported as “increase in DsRed levels in the presence of theophylline” and the “DsRed-Express down-regulation in cis” value was “substantial DsRed-Express down-regulation”.

B7: th2: SEQ ID NO. 25; th1 altered to target a different location in the GFP transcript (nucleic acid)
chain: TCTAGAACGGGTCCTGATACCAGCGTGAGCGCCAAGAAGATGGTGCGCTCCTGGAGTGAAGCCACAGATGTCCAGGAGCGCACCATCTTCTTGTCGCCTACGCCCTTGGCAGCAGGGCCC
modifications: expressed or natural sequence
notes: 25; th1 altered to target a different location in the GFP transcript
Take B7: in series [1], the GFP silencing result was “preserved silencing”; the “response of GFP levels to theophylline” value is “preserved silencing and the theophylline response”.

B8: xa2: SEQ ID NO. 32; GFP-targeting miRNA with xanthine aptamer binding core and loop, inverted (nucleic acid)
chain: TCTAGAACGGGTCCGAGGTCGACGTGAGCGAGCACAAGCTGGAGTACAACTATAGTGAAGCCACAGATGTATAGTTGTACTCCAGCTTGTGCCCGCCTACGTGTATTACCCAGGGCCC
modifications: expressed or natural sequence
Consider B8, for which, in series [1], the “response of GFP levels to hypoxanthine” value is reported as “hypoxanthine-dependent increase in GFP levels” and the GFP silencing entry is “substantial GFP silencing”.

B9: xa1: SEQ ID NO. 31; GFP-targeting miRNA with the binding core of the xanthine aptamer (nucleic acid)
chain: TCTAGAACGGGTCCGTGTATTACCTGAGCGAGCACAAGCTGGAGTACAACTATAGTGAAGCCACAGATGTATAGTTGTACTCCAGCTTGTGCCCGCCTAGGTCGACGGGCCC
modifications: expressed or natural sequence
B9: the GFP silencing result in series [1] is on record as “completely abolished silencing”.

B10: th1′: SEQ ID NO. 24; theophylline-responsive non-targeting miRNA, scrambled mature miRNA sequence (nucleic acid)
chain: TCTAGAACGGGTCCTGATACCAGCGTGAGCGAGCACAAGCTATCAACATGAGGTAGTGAAGCCACAGATGTACCTCATGTTGATAGCTTGTGCCCGCCTACGCCCTTGGCAGCAGGGCCC
For B10, in series [1], the GFP silencing entry is “abolished silencing”. Also, in series [1] (up to four copies separated by 112 nt spacer), the “GFP silencing versus miRNA copy number” value is “no effect on GFP levels”.

The record behind these values is patent publication US9145555B2, “Integrated—ligand-responsive microRNAs” (California Institute of Technology, priority 2009, dated 2015).
